The target of one test is p53 DNA binding domain (UniProt P04637 94-312). Description: SPR. A general note: Surface plasmon resonance follows binding to a sensor surface in real time, without labels.
For test [1], the target named is fluorescein-labelled p53DBD (UniProt P04637 94-312, fluorescein label (site not stated)). Description: fluorescence polarisation. For orientation: Polarisation of emitted light reports the rotation of a fluorescent probe.

This note sets out measurements from PMC3664427 (Circulation research, 2011).

Sequence of fluorescein-labelled p53DBD (P04637 94-312): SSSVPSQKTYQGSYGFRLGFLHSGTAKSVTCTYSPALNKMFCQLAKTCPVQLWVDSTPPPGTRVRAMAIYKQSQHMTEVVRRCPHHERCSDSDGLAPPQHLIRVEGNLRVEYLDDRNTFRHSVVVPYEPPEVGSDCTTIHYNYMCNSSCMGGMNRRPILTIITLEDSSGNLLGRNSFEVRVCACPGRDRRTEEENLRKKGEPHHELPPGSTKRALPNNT
Sequence of p53 DNA binding domain (P04637 94-312): as above

B1: telethonin (natural protein, human, UniProt O15273 1-167, looked up)
chain: MATSELSCEVSEENCERREAFWAEWKDLTLSTRPEEGCSLHEEDTQRHETYHQQGQCQVLVQRSPWLMMRMGILGRGLQEYQLPYQRVLPLPIFTPAKMGATKEEREDTPIQLQELLALETALGGQCVDRQEVAEITKQLPPVVPVSKPGALRRSLSRSMSQEAQRG
Take B1: the Kd was determined as 765 ± 30 nM with p53 DNA binding domain and 2200 nM in test [1].

As usually defined, the Kd is the free concentration of one partner at which half of the binding sites on the other are occupied at equilibrium, for simple one-to-one binding. A low value points to higher affinity.
